In patent US20240158537A1 (BRIGHT PEAK THERAPEUTICS, published 2024):

Tests used:
[1] = molecular target: T1, Biotinylated Recombinant Human PD-1 (CD279)-Fc Chimera (carrier-free), Biolegend #789406 (human, UniProt Q15116 25-167, biotinylated (site not stated)); assay: ELISA (OD 450 nm): antibody coated on the plate, biotinylated human PD-1-Fc titrated, streptavidin-HRP detection; x axis 'Molecule (nM)'; EC50 table beside the plot
T1 construct: Bought reagent; also called h-PD1 Fc; Fc part of the bought chimera not given

[2] = molecular target: T1, Biotinylated Recombinant Human PD-1 …; assay: ELISA (OD 450 nm): immunocytokine coated on the plate, biotinylated human PD-1-Fc titrated, streptavidin-HRP detection; x axis 'Molecule (nM)'; EC50 table beside the plot
Experimental: Each of these variant conjugates and unmodified antibodies were assayed by ELISA for their ability to bind to human PD-1 according to the following protocol.
Streptavidin-HRP was Sigma #RABHRP3. TMB solution was 3,3′,5,5′-Tetramethylbenzidine (Sigma T0440). Stop solution was Sigma #CL07STOP solution (0.5M H2SO4). Buffers were: Coating buffer was PBS. Wash buffer was PBS-0.02% Tween20. Blocking buffer was PBS-0.02% Tween20 1% BSA. Protein diluent was PBS-0.02% Tween20 0.1% BSA. STOP solution was 0.5M H2SO4. […] The ELISA plates were washed 4 times with 100 μl PBS—0.02% Tween20. and blocked with PBS—1% BSA. A serial dilution of h-PD1 Fc was prepared and plates were incubated for two hours at 37° C., with shaking (600 rpm). ELISA plates were washed and incubated with Streptavidin-HRP 30 min at RT, with shaking (600 rpm). ELISA plates were washed and incubated with ready-to-use TMB solution. Reaction was stopped and plates were read by OD450 on an Enspire plate reader.

T1 sequence (Q15116 25-167, change not shown): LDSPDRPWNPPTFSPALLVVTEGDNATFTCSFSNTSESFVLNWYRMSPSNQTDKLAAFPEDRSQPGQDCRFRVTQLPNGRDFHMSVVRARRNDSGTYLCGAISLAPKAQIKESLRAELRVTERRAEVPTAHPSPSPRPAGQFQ

B1: LZM-009 (unmodified anti-PD-1 antibody, SEQ ID NOs: 76-77) (antibody, V domains shown)
VH: QVQLVQSGAEVKKPGASVKVSCKASGYTFTSYYMYWVRQAPGQGLEWMGGVNPSNGGTNFNEKFKSRVTITADKSTSTAYMELSSLRSEDTAVYYCARRDYRYDMGFDYWGQGTTVTVSS
VL: EIVLTQSPATLSLSPGERATISCRASKGVSTSGYSYLHWYQQKPGQAPRLLIYLASYLESGVPARFSGSGSGTDFTLTISSLEPEDFATYYCQHSRELPLTFGTGTKVEIK
notes: It was tested as a full antibody with an Fc region (K248, Eu numbering); also called parental antibody
B1 was tested, and the EC50 [1] was 0.035 nM.

B2: Composition C (LZM-009-IL-7 conjugate, DAR 1) (other)
VH: B1 VH
VL: B1 VL
chain: DCDIEGKDGKQYESVLXVSIDQLLDSXKEIGSNCLXNEFNFFKRHICDANKEGXFLFRAARKLRQFLKXNSTGDFXLHLLKVSEGTTILLNCTGQVKGRKPAALGEAQPTKSLXENKSLKEQKKLNDLCFLKRLLQEIKTCWNKILXGTKEH
modifications: not fully specified; Nle at 17, 27, 54, 69, 147; Hse at 36, 76, 114; N-terminal amine carries the glutaryl-PEG-azide handle of Composition AA, joined by a chemical linker to K248 of the antibody heavy chain; K248 (Eu numbering) of the Fc region, whose sequence is not given, carries a DBCO linker reacted with the azide of Composition AA (triazole); drug-antibody ratio 1
notes: Chemical conjugate; also called immunocytokine Composition C
B2 was tested, and the EC50 [2] was 0.0348 nM.
